Reference: the Human Domainome abundance scans (Beltran et al. 2025)

B1: Tumor protein 63, residues 545 to 610; numbered along this chain, Q9H3D4 (parent)
chain: TDCSIVSFLARLGCSSCLDYFTTQGLTTIYQIEHYSMDDLASLKIPEQFRHAIWKGILDHRQLHEF

Variants of: B1
Assay: abundance fitness (aPCA) (normalised: wild type 0, dead -1); higher = more abundant; growth selection in yeast, the domain comes from the species named
Settings: Homo sapiens

Abundance fitness, by site and new letter:
L12: Y -0.048 | Q -0.074 | G -0.648 | S -0.119 | E -0.285 | W -0.072 | F -0.149 | R -0.112 | K -0.146 | P -0.726 | N -0.107 | A -0.068 | H -0.099 | V -0.047 | C -0.087 | D -0.836 | M -0.05 | T -0.06 | I 0.021
R11: V -0.171 | T -0.023 | Y -0.221 | M -0.111 | N -0.093 | Q -0.08 | P -0.133
I29: W -0.052 | P -0.309 | R -0.285 | A -0.175 | E -0.366 | K -0.366 | D -0.42 | H -0.432 | G -0.701 | F 0.063 | V -0.019 | S -0.245 | T -0.046 | Q -0.355 | N -0.719 | L -0.027 | M 0.042 | Y -0.049
C14: W -0.61 | V -0.027 | K -0.125 | H -0.12 | T -0.143 | L 0.023 | I -0.068 | R -0.222 | P -0.889 | Y -0.076 | E -0.42 | S -0.128 | N -0.34 | F -0.111 | M -0.014
T22: N -0.066 | E -0.014 | L -0.021 | K -0.017 | C -0.166 | P -0.78 | A -0.023 | I -0.027 | H -0.04 | V -0.036 | Q -0.026 | W -0.096 | F -0.102 | Y -0.177 | M -0.098 | G -0.1 | D -0.039
T28: N -0.087 | D -0.021 | R -0.051 | A -0.065 | W -0.04 | F -0.063 | C -0.211 | L -0.084 | V -0.1 | M -0.038 | I -0.192 | Q -0.012 | G -0.069 | H -0.056 | K -0.028 | Y -0.056 | P -0.82
D19: P 0.004 | R -0.019 | N 0.004 | E -0.015 | L -0.089 | W -0.058 | F -0.09 | M -0.086 | A -0.05 | C -0.079 | I -0.067 | T -0.002 | K -0.024 | Y -0.103 | V -0.081 | Q -0.087 | G -0.032
S15: N -0.034 | Q 0.008 | E -0.067 | I -0.042 | Y -0.096 | F -0.157 | L -0.061 | M -0.076 | G -0.059 | H -0.031 | C -0.057 | V -0.077 | A -0.046 | T 0 | W -0.179 | D -0.064 | K -0.037 | P -0.086 | R -0.052
Q24: K -0.018 | N -0.089 | C -0.048 | S -0.037 | T -0.062 | R -0.023 | E -0.039 | M -0.067 | W -0.138 | F -0.12 | V -0.04 | L -0.081 | D -0.152 | Y -0.121 | P -0.21 | G -0.081 | A -0.025 | H -0.015 | I -0.073
T27: H -0.005 | K -0.032 | F -0.063 | Q -0.049 | A -0.105 | D -0.057 | L -0.084 | M -0.107 | R -0.053 | Y -0.079 | P -0.82 | G -0.123 | C -0.133 | N -0.024 | S -0.022 | E -0.04 | I -0.075 | V -0.044 | W -0.135
L18: R -0.072 | T -0.008 | M -0.008 | W -0.203 | Y -0.047 | I -0.036 | A -0.008 | K 0.061 | S -0.018 | F -0.16 | V -0.013 | D -0.09 | C 0.007 | E -0.014 | H -0.126 | P -0.551 | G -0.08 | Q -0.002 | N -0.047
G13: L -0.438 | V -0.804 | Q -0.04 | D 0.004 | F -0.45 | E -0.071 | T -0.188 | I -0.814 | W -0.829 | H -0.174 | P -0.935 | R -0.077 | N -0.013 | S -0.076 | M -0.178 | Y -0.298 | A -0.117
Y20: L -0.044 | Q -0.09 | A -0.028 | M -0.02 | C -0.08 | K -0.02 | V -0.109 | N -0.022 | R -0.043 | I -0.002 | D -0.175 | G -0.268 | P -0.387 | W -0.097 | E -0.139
F21: Y -0.85 | V -1 | L -0.56 | E -0.983 | S -0.773 | A -1.02 | W -1.04 | K -1.15 | I -0.737 | D -1.03 | C -1.01 | R -0.964 | H -0.975 | T -1.13 | G -0.986 | Q -0.965 | N -0.962
Y30: G 0 | H 0.057 | D 0.009 | N -0.046 | S 0.038 | E -0.016 | M -0.025 | K 0.001 | F -0.112 | I -0.049 | V -0.034 | L -0.044 | C 0.005 | T -0.001 | Q 0.029 | P 0.007 | R 0.008
S16: G -0.023 | T -0.073 | C 0.016 | H -0.059 | D -0.012 | E -0.033 | W -0.165 | I -0.089 | P -0.006 | R -0.092 | K -0.12 | F -0.106 | A -0.037 | Y -0.156
L26: W -0.435 | A -0.271 | G -0.935 | N -0.414 | M -0.112 | F -0.106 | V -0.054 | Q -0.345 | C -0.174 | I -0.014 | P -0.692 | D -0.552 | H -0.225 | R -0.436 | T -0.272 | Y -0.149
G25: H -0.099 | S -0.062 | T -0.401 | N -0.048 | L -0.582 | F -0.549 | R -0.093 | V -0.866 | M -0.362 | I -1 | Y -0.349 | P -0.885 | W -0.733 | E -0.067 | A -0.118 | C -0.143 | Q -0.116
T23: Y -0.096 | A -0.023 | M -0.01 | C -0.037 | E -0.02 | K -0.008 | Q 0 | V -0.044 | D -0.027 | N 0.002 | W -0.105 | L -0.03 | R -0.02 | I -0.072 | H 0.076 | P -0.093 | G -0.004 | S -0.037
C17: N -0.359 | Y -0.323 | V -0.077 | S -0.164 | F -0.299 | M -0.025 | H -0.525 | G -0.584 | K -0.619 | L -0.085 | Q -0.147 | P -0.784 | D -1.05 | E -0.377 | R -0.838 | I -0.124 | T -0.087
